The values below come from paper PMC6181050.

The target of experiment [1] is PSI core complex (Chlamydomonas reinhardtii) (UniProt P12154). As to the kind of experiment: co-purification by sucrose density gradient ultracentrifugation with immunoblotting; PSI-LHCI complex from the ΔLHCA5 mutant (no LHCA5); thylakoids solubilised with 1% beta-DDM; SW41Ti, 288,000g, 4°C, 16 h; immunoblots normalised to PSAD. Background: In western blotting, separated proteins are transferred to a membrane and probed.
Chain of UniProt P12154 (P12154 whole entry, looked up, one chain of several): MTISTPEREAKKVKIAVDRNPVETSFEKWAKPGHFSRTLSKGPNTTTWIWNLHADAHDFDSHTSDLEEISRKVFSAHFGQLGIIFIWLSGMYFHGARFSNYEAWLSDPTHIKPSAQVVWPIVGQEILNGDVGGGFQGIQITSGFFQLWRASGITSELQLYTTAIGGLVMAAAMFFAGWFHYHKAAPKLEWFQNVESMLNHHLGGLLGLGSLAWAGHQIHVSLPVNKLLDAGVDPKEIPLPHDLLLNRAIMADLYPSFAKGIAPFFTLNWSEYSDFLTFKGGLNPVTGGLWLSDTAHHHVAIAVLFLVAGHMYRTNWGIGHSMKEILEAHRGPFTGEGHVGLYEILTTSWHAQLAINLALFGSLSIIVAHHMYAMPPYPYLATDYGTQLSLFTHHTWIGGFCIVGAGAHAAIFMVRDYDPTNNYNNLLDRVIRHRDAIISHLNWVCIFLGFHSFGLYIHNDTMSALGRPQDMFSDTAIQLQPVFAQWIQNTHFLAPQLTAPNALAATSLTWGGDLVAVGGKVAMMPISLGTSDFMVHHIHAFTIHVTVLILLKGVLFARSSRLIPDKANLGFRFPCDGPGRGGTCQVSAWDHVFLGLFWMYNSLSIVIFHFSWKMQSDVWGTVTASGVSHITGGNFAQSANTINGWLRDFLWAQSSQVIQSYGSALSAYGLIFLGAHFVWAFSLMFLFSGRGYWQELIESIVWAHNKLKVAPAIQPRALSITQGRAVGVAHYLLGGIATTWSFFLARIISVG

Experiment [2] has the same target. In words: co-purification by sucrose density gradient ultracentrifugation with 14C autoradiography; PSI-LHCI supercomplex from uniformly 14C-labelled wild-type cells; NaBr-washed thylakoids solubilised with 0.8% beta-DDM; TLS-55 rotor, 259,000g, 2.5 h; polypeptides separated by three SDS-PAGE systems; signal divided by carbon number and normalised to PSAF.
Experiment [3] addresses PSAF (Chlamydomonas reinhardtii). Described as above.

For LHCA1 (natural protein), the amount in the PSI-LHCI supercomplex from the ΔLHCA5 mutant, percent of the control level in experiment [1] is 50%. In experiment [2], this substance returned a stoichiometry N (copies, on a PSAF basis) of 1.81.

LHCA2 (natural protein) showed a stoichiometry N (copy, on a PSAF basis) in experiment [2] of 1.

Regarding LHCA3 (natural protein), the stoichiometry N (copy, on a PSAF basis) in experiment [2] stood at 1.

Regarding LHCA5 (natural protein), the stoichiometry N (copy, on a PSAF basis) in experiment [2] came to 1.

Substance LHCA7 (natural protein) displayed a stoichiometry N (copy, on a PSAF basis) in experiment [2] of 1.

As to LHCA8 (natural protein), the stoichiometry N (copy, on a PSAF basis) in experiment [2] stood at 1.

Consider LHCA9 (natural protein), for which the stoichiometry N (copy, on a PSAF basis) in experiment [2] worked out at 1.

Regarding PSAD (natural protein), the stoichiometry N (relative abundance, on a PSAF basis) in experiment [3] came to 1.17.
